± gives the standard deviation of the averaged measurements.
Experiment: total protein half-life in vivo (active degradation + dilution); higher = more stable protein
[1] = E. coli NCM3722 delta-clpP delta-lon delta-hslV, growth: N-lim chemostat, doubling time 6 h
[2] = E. coli NCM3722 delta-clpP, growth: N-lim chemostat, doubling time 6 h
[3] = E. coli NCM3722 delta-hslV, growth: N-lim chemostat, doubling time 6 h
[4] = E. coli NCM3722 delta-lon, growth: N-lim chemostat, doubling time 6 h
[5] = E. coli NCM3722 delta-smpB, growth: N-lim chemostat, doubling time 6 h
[6] = wild type E. coli NCM3722, growth: C-lim chemostat, doubling time 3 h
[7] = wild type E. coli NCM3722, growth: C-lim chemostat, doubling time 6 h
[8] = wild type E. coli NCM3722, growth: C-lim chemostat, doubling time 12 h
[9] = wild type E. coli NCM3722, growth: N-lim chemostat, doubling time 6 h
[10] = wild type E. coli NCM3722, growth: N-lim chemostat, doubling time 12 h
[11] = wild type E. coli NCM3722, growth: P-lim chemostat, doubling time 6 h
[12] = wild type E. coli NCM3722, growth: P-lim chemostat, doubling time 12 h

Sequence: MMEGQQHGEQLKRGLKNRHIQLIALGGAIGTGLFLGSASVIQSAGPGIILGYAIAGFIAFLIMRQLGEMVVEEPVAGSFSHFAYKYWGSFAGFASGWNYWVLYVLVAMAELTAVGKYIQFWYPEIPTWVSAAVFFVVINAINLTNVKVFGEMEFWFAIIKVIAVVAMIIFGGWLLFSGNGGPQATVSNLWDQGGFLPHGFTGLVMMMAIIMFSFGGLELVGITAAEADNPEQSIPKATNQVIYRILIFYIGSLAVLLSLMPWTRVTADTSPFVLIFHELGDTFVANALNIVVLTAALSVYNSCVYCNSRMLFGLAQQGNAPKALASVDKRGVPVNTILVSALVTALCVLINYLAPESAFGLLMALVVSALVINWAMISLAHMKFRRAKQEQGVVTRFPALLYPLGNWICLLFMAAVLVIMLMTPGMAISVYLIPVWLIVLGIGYLFKEKTAKAVKAH
- total protein half-life in vivo [1]: 5.89 ± 0.35 h
- total protein half-life in vivo [2]: 4.94 ± 0.16 h
- total protein half-life in vivo [3]: 5.65 h
- total protein half-life in vivo [4]: 4.684 ± 0.041 h
- total protein half-life in vivo [5]: 5.14 ± 0.68 h
- total protein half-life in vivo [6]: 2.98 h
- total protein half-life in vivo [7]: 5.81 ± 0.44 h
- total protein half-life in vivo [8]: 11.914 ± 0.0083 h
- total protein half-life in vivo [9]: 5.68 ± 1.1 h
- total protein half-life in vivo [10]: 9.07 ± 0.36 h
- total protein half-life in vivo [11]: 5.39 ± 0.41 h
- total protein half-life in vivo [12]: 10.1 ± 1.7 h

Sequence: MLQNCAQSNCRIIPKKLRDMKREEICRLLADKVNKLKNKENSLSGLLPDVRLLYGETPFARTPVMYEPGIIILFSGHKIGYINERVFRYDANEYLLLTVPLPFECETYATSEVPLAGLRLNVDILQLQELLMDIGEDEHFQPSMAASGINSATLSEEILCAAERLLDVMERPLDARILGKQIIREILYYVLTGPCGGALLALVSRQTHFSLISRVLKRIENKYTENLSVEQLAAEANMSVSAFHHNFKSVTSTSPLQYLKNYRLHKARMMIIHDGMKASAAAMRVGYESASQFSREFKRYFGVTPGEDAARMRAMQGN
- total protein half-life in vivo [1]: 5 ± 0.43 h
- total protein half-life in vivo [2]: 3.07 ± 0.072 h
- total protein half-life in vivo [3]: 2.48 ± 0.13 h
- total protein half-life in vivo [4]: 4.33 ± 0.18 h
- total protein half-life in vivo [5]: 2.432 ± 0.0042 h
- total protein half-life in vivo [6]: 2.08 ± 0.1 h
- total protein half-life in vivo [7]: 3.87 ± 0.56 h
- total protein half-life in vivo [8]: 4.94 h
- total protein half-life in vivo [9]: 2.98 h
- total protein half-life in vivo [10]: 3.71 ± 0.24 h
- total protein half-life in vivo [11]: 2.74 h
- total protein half-life in vivo [12]: 4.35 ± 0.82 h

Sequence: MNITATVLLAFGMSMDAFAASIGKGATLHKPKFSEALRTGLIFGAVETLTPLIGWGMGMLASRFVLEWNHWIAFVLLIFLGGRMIIEGFRGADDEDEEPRRRHGFWLLVTTAIATSLDAMAVGVGLAFLQVNIIATALAIGCATLIMSTLGMMVGRFIGSIIGKKAEILGGLVLIGIGVQILWTHFHG
- total protein half-life in vivo [3]: 5.5 h
- total protein half-life in vivo [12]: 8.23 h

Sequence: MTRLTLALDVMGGDFGPSVTVPAALQALNSNSQLTLLLVGNSDAITPLLAKADFEQRSRLQIIPAQSVIASDARPSQAIRASRGSSMRVALELVKEGRAQACVSAGNTGALMGLAKLLLKPLEGIERPALVTVLPHQQKGKTVVLDLGANVDCDSTMLVQFAIMGSVLAEEVVEIPNPRVALLNIGEEEVKGLDSIRDASAVLKTIPSINYIGYLEANELLTGKTDVLVCDGFTGNVTLKTMEGVVRMFLSLLKSQGEGKKRSWWLLLLKRWLQKSLTRRFSHLNPDQYNGACLLGLRGTVIKSHGAANQRAFAVAIEQAVQAVQRQVPQRIAARLESVYPAGFELLDGGKSGTLR
- total protein half-life in vivo [2]: 6.24 ± 1.2 h
- total protein half-life in vivo [3]: 5.82 ± 0.97 h
- total protein half-life in vivo [5]: 5.36 ± 0.15 h
- total protein half-life in vivo [6]: 2.67 ± 0.076 h
- total protein half-life in vivo [7]: 5.52 ± 0.33 h
- total protein half-life in vivo [8]: 10.8 ± 1.9 h
- total protein half-life in vivo [9]: 5.32 ± 0.21 h
- total protein half-life in vivo [10]: 9.51 ± 0.53 h
- total protein half-life in vivo [11]: 5.34 ± 0.72 h
- total protein half-life in vivo [12]: 8.85 ± 1.9 h

Sequence: MESWLIPAAPVTVVEEIKKSRFITMLAHTDGVEAAKAFVESVRAEHPDARHHCVAWVAGAPDDSQQLGFSDDGEPAGTAGKPMLAQLMGSGVGEITAVVVRYYGGILLGTGGLVKAYGGGVNQALRQLTTQRKTPLTEYTLQCEYHQLTGIEALLGQCDGKIINSDYQAFVLLRVALPAAKVAEFSAKLADFSRGSLQLLAIEE
- total protein half-life in vivo [1]: 5.13 h
- total protein half-life in vivo [2]: 3.99 ± 0.14 h
- total protein half-life in vivo [4]: 3.84 ± 0.059 h
- total protein half-life in vivo [5]: 2.87 ± 0.15 h
- total protein half-life in vivo [6]: 2.93 ± 0.19 h
- total protein half-life in vivo [7]: 4.62 ± 0.11 h
- total protein half-life in vivo [8]: 15 h
- total protein half-life in vivo [9]: 3.48 ± 0.22 h
- total protein half-life in vivo [10]: 4.67 ± 0.14 h
- total protein half-life in vivo [11]: 4.78 h
- total protein half-life in vivo [12]: 7.73 ± 0.15 h

Sequence: MAKNRSRRLRKKMHIDEFQELGFSVAWRFPEGTSEEQIDKTVDDFINEVIEPNKLAFDGSGYLAWEGLICMQEIGKCTEEHQAIVRKWLEERKLDEVRTSELFDVWWD
- total protein half-life in vivo [1]: 5.96 ± 0.18 h
- total protein half-life in vivo [2]: 6.44 ± 1.1 h
- total protein half-life in vivo [3]: 6.42 ± 0.59 h
- total protein half-life in vivo [4]: 6.34 ± 0.93 h
- total protein half-life in vivo [5]: 5.56 ± 0.31 h
- total protein half-life in vivo [6]: 3.43 ± 0.076 h
- total protein half-life in vivo [7]: 5.41 ± 0.22 h
- total protein half-life in vivo [8]: 9.8 ± 0.27 h
- total protein half-life in vivo [9]: 5.26 h
- total protein half-life in vivo [10]: 12.6 ± 0.72 h
- total protein half-life in vivo [11]: 5.22 ± 0.22 h
- total protein half-life in vivo [12]: 11.7 ± 0.92 h

Sequence: MISAFDIFKIGIGPSSSHTVGPMNAGKSFIDRLESSGLLTATSHIVVDLYGSLSLTGKGHATDVAIIMGLAGNSPQDVVIDEIPAFIELVTRSGRLPVASGAHIVDFPVAKNIIFHPEMLPRHENGMRITAWKGQEELLSKTYYSVGGGFIVEEEHFGLSHDVETSVPYDFHSAGELLKMCDYNGLSISGLMMHNELALRSKAEIDAGFARIWQVMHDGIERGMNTEGVLPGPLNVPRRAVALRRQLVSSDNISNDPMNVIDWINMYALAVSEENAAGGRVVTAPTNGACGIIPAVLAYYDKFRRPVNERSIARYFLAAGAIGALYKMNASISGAEVGCQGEIGVACSMAAAGLTELLGGSPAQVCNAAEIAMEHNLGLTCDPVAGQVQIPCIERNAINAVKAVNAARMAMRRTSAPRVSLDKVIETMYETGKDMNDKYRETSRGGLAIKVVCG
- total protein half-life in vivo [1]: 4.67 h
- total protein half-life in vivo [7]: 2.13 h
- total protein half-life in vivo [8]: 2.34 h

Sequence: MSKTIATENAPAAIGPYVQGVDLGNMIITSGQIPVNPKTGEVPADVAAQARQSLDNVKAIVEAAGLKVGDIVKTTVFVKDLNDFATVNATYEAFFTEHNATFPARSCVEVARLPKDVKIEIEAIAVRR [P0AF93]
- total protein half-life in vivo [1]: 6.26 ± 0.82 h
- total protein half-life in vivo [2]: 5.12 ± 0.65 h
- total protein half-life in vivo [3]: 5.28 ± 0.082 h
- total protein half-life in vivo [4]: 5.91 ± 0.21 h
- total protein half-life in vivo [5]: 5.15 ± 0.68 h
- total protein half-life in vivo [6]: 3.16 ± 0.28 h
- total protein half-life in vivo [7]: 5.56 ± 0.15 h
- total protein half-life in vivo [8]: 10.8 ± 1.1 h
- total protein half-life in vivo [9]: 4.88 ± 0.16 h
- total protein half-life in vivo [10]: 8.99 ± 0.37 h
- total protein half-life in vivo [11]: 5.694 ± 0.0093 h
- total protein half-life in vivo [12]: 12.8 ± 0.61 h

Sequence: MPQHDQLHRYLFENFAVRGELVTVSETLQQILENHDYPQPVKNVLAELLVATSLLTATLKFDGDITVQLQGDGPMNLAVINGNNNQQMRGVARVQGEIPENADLKTLVGNGYVVITITPSEGERYQGVVGLEGDTLAACLEDYFMRSEQLPTRLFIRTGDVDGKPAAGGMLLQVMPAQNAQQDDFDHLATLTETIKTEELLTLPANEVLWRLYHEEEVTVYDPQDVEFKCTCSRERCADALKTLPDEEVDSILAEDGEIDMHCDYCGNHYLFNAMDIAEIRNNASPADPQVH [P0A6Y5]
- total protein half-life in vivo [1]: 4.77 ± 0.4 h
- total protein half-life in vivo [2]: 4.06 ± 0.058 h
- total protein half-life in vivo [3]: 4.35 ± 0.87 h
- total protein half-life in vivo [4]: 4.6 ± 0.6 h
- total protein half-life in vivo [5]: 3.55 ± 0.12 h
- total protein half-life in vivo [6]: 1.924 ± 0.015 h
- total protein half-life in vivo [7]: 3.85 ± 0.11 h
- total protein half-life in vivo [8]: 7.32 ± 0.54 h
- total protein half-life in vivo [9]: 4.02 ± 0.13 h
- total protein half-life in vivo [10]: 6.02 ± 0.22 h
- total protein half-life in vivo [11]: 4.51 ± 0.073 h
- total protein half-life in vivo [12]: 9.18 ± 2 h

From the supplement of paper PMC11246515
